Data on four molecules can be found in publication PMC3319151 (Journal of Molecular Biology, 2009).

In data set [1] the target is WFHVEED peptide (synthetic construct). Put plainly: fluorescence polarization. Conditions: cited from earlier work. On the technique in general: Fluorescence polarisation rises when a labelled molecule tumbles more slowly, as on binding a larger partner.
Another data set addresses (FAM)-AWFHVEED peptide. Description: fluorescence polarisation.
In data set [2] the target is T1, CA150 FF1-3 (human CA150 residues 661-845), GST cleaved off (human, UniProt O14776 661-845).
T1 sequence: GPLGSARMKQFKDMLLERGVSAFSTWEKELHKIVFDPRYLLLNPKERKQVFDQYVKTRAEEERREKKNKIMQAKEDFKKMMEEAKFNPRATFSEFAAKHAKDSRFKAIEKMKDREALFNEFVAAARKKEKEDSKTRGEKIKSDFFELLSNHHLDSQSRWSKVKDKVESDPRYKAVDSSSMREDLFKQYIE
Put plainly: fluorescence polarisation.

The target in a further data set is T2, CA150 FF1-3 wild-type (human, UniProt O14776 661-845).
T2 sequence: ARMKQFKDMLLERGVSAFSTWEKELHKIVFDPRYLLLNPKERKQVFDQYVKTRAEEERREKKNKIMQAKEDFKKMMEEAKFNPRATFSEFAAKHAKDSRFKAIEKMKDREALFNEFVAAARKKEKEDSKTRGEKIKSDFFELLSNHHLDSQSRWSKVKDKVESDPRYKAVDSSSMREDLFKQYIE
Put plainly: fluorescence polarization.

In the next data set the target is T3, GST-CA150 FF1-3 (human, UniProt O14776 661-845).
T3 sequence: T2 sequence
Description: fluorescence polarization.

Where no end group is shown, it is not given here. The star is where a group is joined. 5FAM = O=C1OC2(c3ccc(O)cc3Oc3cc(O)ccc32)c2ccc(C(=O)*)cc21

The term Kd denotes the equilibrium constant for the complex coming apart. As to “CA150 (GST-FF1-3) FF1-3 (from UniProt O14776)”, the Kd in data set [1] is 48 µM.
For the molecule GST alone, the dissociation constant Kd with (FAM)-AWFHVEED peptide was greater than 740 µM.
5FAM-AWFHVEED [(FAM)-AWFHVEED peptide]: in data set [2], the Kd was greater than 400 µM.

B1: MATa1/MATalpha2 duplex of Ke et al. (dsDNA)
DNA 1: ACATGTAAAAATTTACATCA
DNA 2: TTGATGTAAATTTTTACATG
B1: the equilibrium dissociation constant (Kd) with CA150 FF1-3 wild-type was 3.87 ± 0.31 µM; with GST-CA150 FF1-3 it was 0.52 ± 0.06 µM.
